Results on one molecule are retold here after article PMC5995851, “Conformational rearrangements of the C1 ring in KaiC measure the timing of assembly with KaiB” (Scientific Reports, 2018).

Assay [1] deals with T1, KaiC^S157W-D/E (S157W/S431D/T432E, pS/pT mimic) (Synechococcus elongatus, UniProt Q79PF4 1-519, S157W | S431D | T432E).
T1 construct: Circadian clock protein KaiC, Synechococcus elongatus, with C1 and C2 domains; Trp probe S157W and phospho-mimicking S431D/T432E
T1 sequence: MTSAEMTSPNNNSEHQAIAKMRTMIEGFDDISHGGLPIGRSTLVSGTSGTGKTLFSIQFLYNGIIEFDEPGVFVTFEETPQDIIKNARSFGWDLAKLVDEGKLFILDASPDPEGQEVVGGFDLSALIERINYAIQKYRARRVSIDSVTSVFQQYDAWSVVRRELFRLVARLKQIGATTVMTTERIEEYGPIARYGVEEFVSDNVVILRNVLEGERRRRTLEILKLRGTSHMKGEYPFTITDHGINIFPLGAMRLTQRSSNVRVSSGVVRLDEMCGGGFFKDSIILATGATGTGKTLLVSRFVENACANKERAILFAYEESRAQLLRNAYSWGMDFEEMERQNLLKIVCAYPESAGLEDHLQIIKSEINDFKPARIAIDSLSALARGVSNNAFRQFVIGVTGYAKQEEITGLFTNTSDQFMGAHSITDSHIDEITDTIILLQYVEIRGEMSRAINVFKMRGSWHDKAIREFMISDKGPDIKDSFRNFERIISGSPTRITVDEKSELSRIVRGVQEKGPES
Description: other fluorescence titration; time-resolved W157 fluorescence at 30 °C after addition of KaiB to KaiC pre-incubated at 30 °C for at least 2 h; KaiC^S157W-D/E fixed at 3.5 µM, KaiB equimolar or 0.9-10.5 µM; 1 mM ATP buffer, pH 8.0. Conditions: both partners purified.

The target in assay [2] is T2, KaiC^S157W-D/T (S157W/S431D, pS/T mimic) (Synechococcus elongatus, UniProt Q79PF4 1-519, S157W | S431D).
T2 construct: Circadian clock protein KaiC, Synechococcus elongatus, with C1 and C2 domains; Trp probe S157W and phospho-mimicking S431D
T2 sequence: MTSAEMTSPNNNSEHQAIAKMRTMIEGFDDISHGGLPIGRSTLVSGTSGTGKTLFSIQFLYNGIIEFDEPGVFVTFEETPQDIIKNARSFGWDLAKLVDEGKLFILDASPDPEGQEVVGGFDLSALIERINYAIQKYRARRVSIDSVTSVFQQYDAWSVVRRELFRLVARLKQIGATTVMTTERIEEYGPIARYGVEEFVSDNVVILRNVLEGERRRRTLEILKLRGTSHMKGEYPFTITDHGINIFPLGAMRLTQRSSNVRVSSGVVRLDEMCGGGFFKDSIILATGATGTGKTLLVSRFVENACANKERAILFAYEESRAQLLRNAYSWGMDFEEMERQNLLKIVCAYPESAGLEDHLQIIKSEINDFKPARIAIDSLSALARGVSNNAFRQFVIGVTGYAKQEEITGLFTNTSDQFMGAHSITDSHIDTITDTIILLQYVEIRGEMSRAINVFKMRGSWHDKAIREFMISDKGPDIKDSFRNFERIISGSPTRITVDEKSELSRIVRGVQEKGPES
Description: tryptophan (W157) fluorescence quenching; KaiC^S157W phospho-mimicking mutants with or without an equimolar concentration of KaiB (monomer basis), spectra after 24 h incubation at 30 °C; 50 mM Tris, 150 mM NaCl, 5 mM MgCl2, 0.5 mM EDTA, 1 mM ATP, pH 8.0; excitation 295 nm. Conditions: both partners purified.

B1: KaiB (wild type) (natural protein, Synechococcus elongatus, UniProt Q79PF5 1-102, looked up)
chain: MSPRKTYILKLYVAGNTPNSVRALKTLKNILEVEFQGVYALKVIDVLKNPQLAEEDKILATPTLAKVLPLPVRRIIGDLSDREKVLIGLDLLYGELQDSDDF
notes: Circadian clock protein KaiB, Synechococcus elongatus, wild type
Consider B1, for which the “t1/2 of the FIapp decrease after addition of equimolar KaiB” value in assay [1] was 2.4 h. For the same molecule, the binding result in assay [2] was “binds”.
